Experimental data taken from publication PMC9052802.

Molecular target: RopC-U (thiazoline-containing product of the reaction of RopC with MicD-F) (UniProt P03051)
Experiment: SEC

stoichiometry N: 2
Substance: RopC-U (thiazoline-containing product of the reaction of RopC with MicD-F) (from UniProt P03051 1-63) (natural protein)
